Values belong to the binder of their own block, whether it stands above or below them. Positions of bridges follow the written chain, without caps; N, C: chain ends. Non-standard residues stand in square brackets, D forms with d. Chains are numbered I, II in the order given. No end group written: not given here. *: point of attachment. dibenzylether crosslinker = scaffold alkylating both cysteine thiols (drawn in Scheme 1 and; FITC = O=C1OC2(c3ccc(O)cc3Oc3cc(O)ccc32)c2ccc(NC(=S)*)cc21; hArg = N=C(N)NCCCC[C@H](N)C(=O)O; βAla = NCCC(=O)O
Columns and labels:
[1] = biological target: T1, fluorescently-labeled wild-type H-Ras-GDP (MST), P01112; assay: microscale thermophoresis, dye-labelled H-Ras-GDP (5-10 nM), CHD titrated
[2] = biological target: T2, G12V mutant His6-tagged H-Ras (1-166) pre-loaded with GDP, P01112; assay: microscale thermophoresis (column MST); AFDye 647-labelled G12V H-Ras-GDP with serial dilutions of the unlabelled CHD
[3] = biological target: T1, fluorescently-labeled wild-type …; assay: microscale thermophoresis; AFDye 647-labelled wild-type H-Ras-GDP with serial dilutions of the CHD
[4] = biological target: K-Ras (endogenous, H358 cells) (human), P01116; assay: cell-based or functional assay
[5] = biological target: T3, wild-type His6-tagged H-Ras (1-166) pre-loaded with GDP, P01112; assay: fluorescence polarization, fluorescein-labelled CHD (15 nM), His6-H-Ras-GDP titrated
[6] = biological target: T2, G12V mutant His6-tagged H-Ras (1-166) …; assay: direct fluorescence polarization (FP); fluorescein-labelled CHD titrated with GDP-loaded His6-H-Ras G12V
[7] = biological target: T3, wild-type His6-tagged H-Ras (1-166) …; assay: direct fluorescence polarization (FP); fluorescein-labelled CHD titrated with GDP-loaded His6-H-Ras
[8] = biological target: G12C mutant His6-tagged H-Ras (1-166) pre-loaded with GDP, P01112; assay: direct fluorescence polarization (FP); fluorescein-labelled CHD titrated with GDP-loaded His6-H-Ras G12C
[9] = biological target: G12D mutant His6-tagged H-Ras (1-166) pre-loaded with GDP, P01112; assay: direct fluorescence polarization (FP); fluorescein-labelled CHD titrated with GDP-loaded His6-H-Ras G12D
[10] = biological target: T3, wild-type His6-tagged H-Ras (1-166) …; assay: direct fluorescence polarization; fluorescein-labelled CHD titrated with GDP-loaded WT H-Ras
[11] = biological target: KRAS (Homo sapiens), P01116; assay: photoaffinity crosslinking in H358 cells, TMT MS proteomics; vs control probe CP-266
[12] = biological target: KRAS (Homo sapiens), P01116; assay: photoaffinity crosslinking in H358 cells, TMT MS proteomics

Kd [1]: 0.3 µM | Kd [2]: 2.7 µM | EC50 (read off the curve) [3]: 0.2 µM | ERK activation levels (ERK phosphorylation, Western blot, H358 cells) [4]: < 1 µM
B1: CHD^Sos-5 (designed binder)
chain 1: WIGRLCTEI[hArg]RLRNGN
chain 2: Ac-LAWRLRELERELARLC-NH2
modifications: linker I:6-II:16 via dibenzylether crosslinker; not fully specified (N-terminus, C-terminus)

Kd [5]: 2 µM | Kd [6]: 13.4 µM | Kd [7]: 1.9 µM | Kd [8]: 16.1 µM | Kd [9]: 17.9 µM
B2: FITC-CHD^Sos-5 (designed binder)
chain 1: Ac-WIGRLCTEI[hArg]RLRNGN-NH2
chain 2: {FITC}-[βAla]LAWRLRELERELARLC-NH2
modifications: linker I:6-II:17 via dibenzylether crosslinker

Kd [5]: 32 µM | Kd [10]: 32.2 µM
B3: FITC-CHD^Sos-1 (designed binder)
chain 1: Ac-FIGRLCTEILKLREGN-NH2
chain 2: {FITC}-[βAla]LAWRLRELERELARLC
modifications: linker I:6-II:17 via dibenzylether crosslinker; not fully specified (C-terminus)

Fold [11]: 6.63 fold | log2(fold) [11]: 2.73 | Average Abundance [12]: 825
B4: DZ2-CHD^Sos-5 (designed binder)
chain 1: WIGRLCTEIKRLRNGN
chain 2: LAWRLRELERELARLC
modifications: not checked

— US20240124539A1, “CROSSLINKED HELIX DIMER MIMICS OF SOS AND METHODS OF USING SAME” (NEW YORK UNIVERSITY, priority 2020, published 2024)
